Reference: patent US20250019435A1 (ALBERT EINSTEIN COLLEGE OF MEDICINE, published 2025)

T1: SHP-2 (human, UniProt Q06124 2-593)
T1 sequence (looked up): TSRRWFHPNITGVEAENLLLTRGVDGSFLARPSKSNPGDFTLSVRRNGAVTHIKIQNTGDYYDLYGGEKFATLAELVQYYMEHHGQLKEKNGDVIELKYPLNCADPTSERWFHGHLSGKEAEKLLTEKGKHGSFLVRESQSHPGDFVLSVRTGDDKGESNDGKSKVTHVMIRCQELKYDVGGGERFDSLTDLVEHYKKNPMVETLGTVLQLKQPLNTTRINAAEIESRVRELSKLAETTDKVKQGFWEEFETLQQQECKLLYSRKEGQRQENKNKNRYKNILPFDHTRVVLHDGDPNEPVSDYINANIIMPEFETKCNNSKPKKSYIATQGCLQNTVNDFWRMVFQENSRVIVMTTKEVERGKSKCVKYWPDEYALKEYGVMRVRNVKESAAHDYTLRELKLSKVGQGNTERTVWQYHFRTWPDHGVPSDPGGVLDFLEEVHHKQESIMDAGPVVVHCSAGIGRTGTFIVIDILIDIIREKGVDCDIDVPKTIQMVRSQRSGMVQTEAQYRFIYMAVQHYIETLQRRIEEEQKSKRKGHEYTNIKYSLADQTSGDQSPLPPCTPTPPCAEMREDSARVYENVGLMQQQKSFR

T2: PVR expressed on transduced cells (PVR-YFP) (UniProt P15151 21-417)
T2 construct: whole, on cells; On NIH 3T3 or Raji cells; also called PVR/3T3; PVR-YFP/3T3; not shown: YFP ('PVR-YFP ... fusion protein')
T2 sequence (looked up): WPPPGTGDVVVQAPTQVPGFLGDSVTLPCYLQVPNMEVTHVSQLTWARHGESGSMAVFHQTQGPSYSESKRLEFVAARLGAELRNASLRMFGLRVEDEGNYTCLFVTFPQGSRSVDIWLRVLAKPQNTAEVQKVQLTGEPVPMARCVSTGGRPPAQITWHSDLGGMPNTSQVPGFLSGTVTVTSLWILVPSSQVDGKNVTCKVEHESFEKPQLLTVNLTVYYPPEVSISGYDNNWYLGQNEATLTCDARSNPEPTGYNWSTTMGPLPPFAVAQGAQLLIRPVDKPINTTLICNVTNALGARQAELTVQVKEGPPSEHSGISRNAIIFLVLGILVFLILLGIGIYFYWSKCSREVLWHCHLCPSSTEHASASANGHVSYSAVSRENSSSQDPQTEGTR

B1: Y298F (receptor)
receptor chain: HEGGQDKPLLSAWPSAVVPRGGHVTLLCRSRLGFTIFSLYKEDGVPVPELYNKIFWKSILMGPVTPAHAGTYRCRGSHPRSPIEWSAPSNPLVIVVTGLFGKPSLSAQPGPTVRTGENVTLSCSSRSSFDMYHLSREGRAHEPRLPAVPSVNGTFQADFPLGPATHGGTYTCFGSLHDSPYEWSDPSDPLLVSVTGNSSSSSSSPTEPSSKTGIRRHLHILIGTSVAIILFIILFFFLLHCCCSNKKNAAVMDQEPAGDRTVNREDSDDQDPQEVTFAQLDHCVFTQTKITSPSQRPKTPPTDTTMYMELPNAKPRSLSPAHKHHSQALRGSSRETTALSQNRVASSHVPAAGI
notes: also called KIR2DL5 Y298F (ITIM mutant) on transduced primary NK cells
B2: anti-KIR2DL5 mAb clone B7B23 (antibody, V domains shown)
VH: QVQLQQSGAELVRPGVSVKISCKGSGYTFTDYTMHWVKQSHAKSLEWIGVISPYYGDASYNQKFKGKATMTVDKSSSTAYMELARLTSEDSAIYYCARGLLRGFAYWGQGTLVTVS
VL: DIVMTQSPSSKDMSVGQKVTMRCKSSKSLLNSSNQKKYLAWYQQKPGQSPKLLVYFASIRESGVPDRFIGSGSGTDFTLTISSVQVEDLADYFCQQHYSTPWTFGGG
notes: also called B7B23 (IgG1, κ)

How the values were obtained:
SHP-2 = target: T1, SHP-2; assay: co-immunoprecipitation with anti-KIR2DL5 from transduced primary NK cells with or without pervanadate, immunoblot
Procedure: (§1) FIG. 12A-12E: KIR2DL5 ITIM and ITSM mediated NK cell inhibition and suppressed downstream signaling. (A) Tyrosine (Y) in ITIM and ITSM of KIR2DL5 was mutated to phenylalanine (F). The KIR2DL5⁻ primary NK cells were transduced with WT KIR2DL5 or the indicated mutants, and then examined for protein expression with F8B30 (open) or mIgG1 (shaded). NC, negative control. Data are representative of 2 independent experiments. (B and C) Transduced primary NK cells were treated with (+) or without (−) pervanadate (VO₄) for 5 minutes. Cell lysates were immunoprecipitated with anti-KIR2DL5 antibodies. Phospho-tyrosine (4G10), SHP-1, SHP-2, and total KIR2DL5 were detected by immunoblots (B). Quantification of p-Tyr, SHP-1, and SHP-2 association with WT or mutant KIR2DL5 in VO₄-treated NK cells (C). WCL, whole-cell lysates. (D) Representative imaging of cell conjugates acquired upon the indicated transduced primary NK and PVR/Raji cell contact followed by staining with anti-KIR2DL5 mAb and DAPI. Scale bars: […]. (E) Lysis of scramble control or PVR^KO A427 (top) and Jurkat (bottom) by WT or mutant KIR2DL5-transduced primary NK cells at the indicated E/T ratios. Data are mean for duplicate measurements and representative of 3 independent experiments with 3 different donors. In A, and B, data are representative of 3 independent experiments. *P<0.05, **P<0.01, ***P<0.001, ****P<0.0001, by 1-way ANOVA (C), or paired Student's t test (D).
Coimmunoprecipitation and immunoblotting. NK92 cells or primary NK cells pretreated with or without 1 mM pervanadate (New England BioLabs) were lysed in Pierce immunoprecipitation lysis buffer supplemented with protease and phosphatase inhibitor cocktail (Thermo Fisher Scientific). Proteins from whole-cell lysis were further incubated with anti-KIR2DL5 antibodies and Dynabeads protein G (Thermo Fisher Scientific) for further immunoprecipitation. […]

[1] = target: T2, PVR expressed on transduced cells …; assay: confocal imaging of conjugates of transduced primary NK cells with PVR-YFP/Raji cells
Procedure: as §1, with “The” for “FIG. 12A-12E: KIR2DL5 ITIM and ITSM mediated NK cell inhibition and suppressed downstream signaling. (A) Tyrosine (Y) in ITIM and ITSM of KIR2DL5 was mutated to phenylalanine (F). The”
NK-Raji conjugation assay. […] Cell mixtures were then loaded onto poly-L-lysine-precoated slides and fixed with 4% formaldehyde at RT for 15 minutes. After blocking with 5% normal goat serum at RT for 1 hour, cells were stained with 20 µg/mL anti-KIR2DL5 antibodies (a mixture of 8 homemade clones) at 4° C. overnight and then with goat anti-mIgG (H+L) Alexa Flour 647 (Invitrogen) at RT for 2 hours. The cells were permeabilized by 0.1% Triton X-100 at RT for 15 minutes and stained with Alexa Flour Plus 405 Phalloidin (Life Technologies) for 1 hour at RT. The slides were then mounted by Gold Antifade Mountant without DAPI (Life Technologies). The mean pixel intensity of synapse and non-synapse was respectively measured and statistically analyzed. Images were acquired by Leica SP8 confocal microscope and processed by ImageJ (NIH).

[2] = target: T3, KIR2DL5-Ig fusion protein (KIR2DL5 extracellular domain fused to human IgG1 Fc) (human, UniProt Q8N109 22-240); assay: BLI, Octet RED96; KIR2DL5-Ig captured on anti-human Fc biosensors, mAb in solution; global 1:1 fit
T3 construct: A D0-only fusion (H22-A128) also exists; also called KIR2DL5-human Ig fusion protein; KIR2DL5 DO-D2-Ig; not shown: human IgG1 Fc tag
Procedure: Biolayer interferometry. The affinities of anti-KIR2DL5 mAbs were analyzed by biolayer interferometry using an Octet RED96 system (ForteBio, Pall LLC). Briefly, anti-human Fc capture biosensors (ForteBio, Pall LLC) were preloaded with KIR2DL5-Ig and then dipped into a solution containing mAb at 2-fold serial dilutions (from 200 to 1.5 μg/mL). Data were analyzed using Forte Pall (Port Washington, New York, USA) software 9.0. The global data fitting to a 1:1 binding model was used to estimate values for the Kₒₙ (association rate constant), Koff (dissociation rate constant), and KD (equilibrium dissociation constant).

[3] = target: T4, D2-deleted KIR2DL5 expressed on 3T3 cells (human, UniProt Q8N109 22-375); assay: flow cytometry, transduced 3T3 cells
T4 construct: also called KIR2DL5 dD2
From the text: (§2) FIG. 15A-15E: Characterization of anti-KIR2DL5 specific monoclonal antibodies. (Related to FIGS. 8A-8D). (A) The protein sequence of KIR2DL5. The extracellular domain of KIR2DL5 was composed of tandem DO-D2 domains. The cytoplasmic tail of KIR2DL5 contained an immunoreceptor tyrosine-based inhibition motif (ITIM) and immunoreceptor tyrosine-based switch motif (ITSM). Domains were predicted and annotated based on UniProtKB (Q8N109). (B) The specificity of anti-KIR2DL5 mAbs. 3T3 cells transduced with indicated KIR family members were stained with 5 μg/ml of indicated anti-KIR2DL5 mAbs (open) or mIgG1 (shaded). (C, D) The affinity of anti-KIR2DL5 mAbs. C: Kinetic binding curves for F8B30 and B19C11. D: Data were acquired from kinetic binding curves detected by the Octet Red96 BLI instrument for indicated clones. (E) 3T3 cells transduced with DO-deleted (KIR2DL5 dD0) or D2-deleted KIR2DL5 (KIR2DL5 dD2) were stained with 5 μg/ml of indicated anti-KIR2DL5 mAbs. In B-E, data are representative of three independent experiments.

[4] = target: T5, D0-deleted KIR2DL5 expressed on 3T3 cells (human, UniProt Q8N109 119-375); assay: flow cytometry, transduced 3T3 cells
T5 construct: the signal peptide 1-21 is left out; also called KIR2DL5 dD0; DO-deleted KIR2DL5
From the text: as §2

binding result (SHP-2)	binding result [1]	Kd [2]	koff [2]	kon [2]	binding result [3]	binding result [4]	Binder
no binding	binds						B1
		0.0413 nM	6.96e-05 s⁻¹	1.69e+06 M⁻¹ s⁻¹	no binding (tested: 5 µg/ml)	no binding (tested: 5 µg/ml)	B2
